Measurements from paper PMC6930887.
Where “and” joins values, the source holds several entries; their conditions need not be identical. Equal entries are not always repeated.

Molecular target: T1, endogenously expressed σ1R of mouse brain cortex (mouse (endogenous in brain cortex)), O55242
T1 chain: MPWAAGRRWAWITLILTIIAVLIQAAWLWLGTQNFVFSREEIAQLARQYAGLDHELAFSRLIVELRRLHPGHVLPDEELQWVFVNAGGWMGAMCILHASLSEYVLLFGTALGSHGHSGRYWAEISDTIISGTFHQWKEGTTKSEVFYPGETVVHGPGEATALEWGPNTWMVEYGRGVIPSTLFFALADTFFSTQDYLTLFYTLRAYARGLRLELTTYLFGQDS
Assay: SDS-PAGE western blot without heat denaturation; mouse brain cortex homogenised in lysis buffer, samples kept on ice, same protocol as for the transfected cells
Conditions: remark: other sources report otherwise

B1: endogenously expressed σ1R of mouse brain cortex, O55242 1-223 (receptor)
chain: T1 chain
B1 was tested, and the stoichiometry N was 2 and 4.
